Laboratory results reported in article PMC4417160, “RBM7 subunit of the NEXT complex binds U-rich sequences and targets 3′-end extended forms of snRNAs”.

How the values were obtained:
Experiment in all cases: fluorescence anisotropy; FA: 50 mM Tris pH 7.0 (also given as pH 8), 200 mM NaCl, 10 mM 2-mercaptoethanol, 20 C; NMR: 20 mM Bis-Tris pH 7.0, 200 mM NaCl, 4 mM 2-mercaptoethanol; pull-down: HSB, 1 h at 30 C
Details in all cases: protein: recombinant; tags: 6xHis-Smt3 removed with Ulp1; label: 5' fluorescein
RBM7 RRM = target: T1, RBM7 RRM (Homo sapiens (cDNA from HEK293T-Rex), UniProt Q9Y580 6-94)
T1 sequence: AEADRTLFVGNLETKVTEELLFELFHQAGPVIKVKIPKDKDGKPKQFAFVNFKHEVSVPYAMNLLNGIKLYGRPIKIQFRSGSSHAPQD

RBM7 RRM K40A = target: T2, RBM7 RRM K40A (Homo sapiens, UniProt Q9Y580 6-94, K40A)
T2 sequence: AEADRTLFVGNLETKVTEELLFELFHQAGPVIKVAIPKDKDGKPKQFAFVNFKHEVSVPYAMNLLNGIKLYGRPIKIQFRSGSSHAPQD

RBM7 RRM K81A = target: T3, RBM7 RRM K81A (Homo sapiens, UniProt Q9Y580 6-94, K81A)
T3 sequence: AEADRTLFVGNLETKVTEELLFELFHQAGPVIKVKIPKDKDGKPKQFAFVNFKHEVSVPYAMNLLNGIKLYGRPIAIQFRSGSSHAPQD

RBM7 RRM K38A = target: T4, RBM7 RRM K38A (Homo sapiens, UniProt Q9Y580 6-94, K38A)
T4 sequence: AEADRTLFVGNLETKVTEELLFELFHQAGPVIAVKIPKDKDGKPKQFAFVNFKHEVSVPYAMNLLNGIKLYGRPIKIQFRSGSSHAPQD

UUUUUUU (ssRNA) [U7]
Kd (RBM7 RRM): 60 ± 10 µM

CUCUCUC (ssRNA) [Y7]
Kd (RBM7 RRM): 70 ± 10 µM | Kd (RBM7 RRM K40A): 200 ± 20 µM | Kd (RBM7 RRM K81A): 100 ± 10 µM | Kd (RBM7 RRM K38A): 90 ± 10 µM

CUUCU (ssRNA) [Y5]
Kd (RBM7 RRM): 90 ± 10 µM

CUCU (ssRNA) [Y4]
Kd (RBM7 RRM): 160 ± 10 µM

AUUAUUA (ssRNA) [AU7]
Kd (RBM7 RRM): 130 ± 10 µM

AAAAAAA (ssRNA) [A7]
binding result (RBM7 RRM): no binding
